Seven compounds from article PMC9672302, “H2A.Z deposition by SWR1C involves multiple ATP-dependent steps” (Nature Communications, 2022) can be followed below.

The subject of series [1] is SWR1C (SWR1 complex) (Saccharomyces cerevisiae (FLAG-tagged Swr1 strain)). The experiment in a line: fluorescence polarization. The following applies: FP: 25 mM HEPES-KOH pH 7.6, 70 mM KCl, 0.2 mM EDTA, 5 mM MgCl2, 1 mM DTT, 0.1 mg/mL BSA, 10 nM nucleosome, 1 mM nucleotide where added, 20 min, room …. A general note: Fluorescence polarisation rises when a labelled molecule tumbles more slowly, as on binding a larger partner.

The target of series [2] is T1, SWR1C (Saccharomyces cerevisiae, UniProt Q05471).
T1 construct: gene SWR1; native multi-subunit remodeler complex purified from a yeast strain with FLAG-tagged Swr1, eluted with 3x FLAG peptide; tag kept; with SWR1-complex protein 5; SWR1-complex protein 3; Vacuolar protein sorting-associated protein 71; Actin-like protein ARP6; Vacuolar protein sorting-associated protein 72; SWR1-complex protein 4; SWR1-complex protein 7; Protein AF-9 homolog; Bromodomain-containing factor 1; Actin-related protein 4; Actin; RuvB-like protein 1; RuvB-like protein 2
The experiment in a line: fluorescence polarization of SWR1C binding to labelled H2A nucleosome with added nucleotide (no constant for the nucleotide). The following applies: 1 mM ADP, 10 nM 77N4-ATTO 647N nucleosome, 5 mM MgCl2, pH 7.6, room temperature; indirect, nucleotide modulates nucleosome affinity.

The target of series [3] is T1, SWR1C. The experiment in a line: single-molecule FRET of H2A/H2B eviction from immobilised nucleosomes. Format: biochemical. The following applies: co-substrates yeast/Xenopus hybrid nucleosome 117N4, H2A.Z/H2B dimer, chaperone Chz1; 0-100 uM ATP; 4 mM MgCl2, pH 7.6, room temperature.
The target of series [4] is SWR1C-nucleosome (SWR1C bound to the tethered biotinTEG-117N4-ATTO 647N H2A nucleosome) (S. cerevisiae | not stated (X. laevis H3.1 or H. sapiens H3.2 C110A made) | X. laevis | yeast (endogenous in the FLAG-tagged Swr1 yeast strain)) (UniProt P04911). The experiment in a line: single-molecule fluorescence colocalisation (TIRF, smFRET set-up); biotinTEG-117N4-ATTO 647N nucleosomes incubated with 25 nM SWR1C and tethered on a streptavidin-coated slide; 50 nM Cy3B-labeled H2A.Z-H2B dimer, 50 nM Chz1, 200 uM ATP, 10 nM 77N0 nucleosome in solution; room temperature; 5 min of acquisition.

Series [5] addresses H2A.Z nucleosomal product with SWR1C (tethered biotinTEG-117N4-ATTO 647N nucleosome after dimer exchange) (S. cerevisiae | not stated (X. laevis H3.1 or H. sapiens H3.2 C110A made) | X. laevis | yeast (endogenous in the FLAG-tagged Swr1 yeast strain)) (UniProt Q12692). The experiment in a line: single-molecule fluorescence colocalisation (TIRF, smFRET set-up); as a6 but with 100 uM ATP.

For series [6] the target is unchanged. The experiment in a line: single-molecule fluorescence colocalisation (TIRF, smFRET set-up); tethered biotinTEG-117N4-ATTO 647N, Cy3B-labeled H2A nucleosome with 30 nM SWR1C, 70 nM H2A.Z-H2B dimer, 70 nM Chz1; 0.5 uM ATP; time from the end of eviction (loss of FRET) to the loss of the Cy3B signal, Kaplan-Meier half-life; room temperature.
Series [7] concerns the target H2A nucleosome (77N4-ATTO 647N nucleosome) (S. cerevisiae | not stated (X. laevis H3.1 or H. sapiens H3.2 C110A made) | X. laevis) (UniProt P04911). The experiment in a line: fluorescence polarisation; 0-250 nM SWR1C titrated to 10 nM 77N4-ATTO 647N nucleosome, no nucleotide; 25 mM HEPES-KOH pH 7.6, 70 mM KCl, 0.2 mM EDTA, 5 mM MgCl2, 1 mM DTT, 0.1 mg/mL BSA; 20 min, room temperature; quadratic binding equation, global fit; apparent Kd.

Series [8] has as its target H2A.Z nucleosome (77N4-ATTO 647N nucleosome) (S. cerevisiae | not stated (X. laevis H3.1 or H. sapiens H3.2 C110A made) | X. laevis) (UniProt Q12692). The description is as above.
Series [9] deals with H2A nucleosome (77N4-ATTO 647N nucleosome) (S. cerevisiae | not stated (X. laevis H3.1 or H. sapiens H3.2 C110A made) | X. laevis) (UniProt P04911). The experiment in a line: fluorescence polarisation; as a1 but with 1 mM ATP; apparent Kd.
For series [10] the target is unchanged. The experiment in a line: fluorescence polarisation; as a1 but with 1 mM ADP; apparent Kd.
Series [11] shares this target. The experiment in a line: fluorescence polarisation; as a1 but with 1 mM AMP-PNP; apparent Kd.

For 77N4 H2A nucleosome (ATTO 647N), the Kd in series [1] (1 mM ADP) was found to be 21 nM; in series [1] (1 mM AMP-PNP), 14 nM; in series [1] (1 mM ATP), 31 nM; in series [1] (no nucleotide (apo), 5 replicates), 12 nM.
Consider 77N4 H2A.Z nucleosome (ATTO 647N), for which the Kd in [1] (no nucleotide (apo)) was 25 nM.
Regarding `Nc1ncnc2c1ncn2[C@@H]1O[C@H](COP(=O)(O)OP(=O)(O)O)[C@@H](O)[C@H]1O` [ADP], at SWR1C [2], the “fluorescence polarization of SWR1C binding to labelled H2A nucleosome with added” value is “a decrease in binding was also observed with ADP”.
Regarding `Nc1ncnc2c1ncn2[C@@H]1O[C@H](COP(=O)(O)OP(=O)(O)OP(=O)(O)O)[C@@H](O)[C@H]1O` [ATP], the “single-molecule FRET of H2A/H2B eviction from immobilised nucleosomes” value at SWR1C [3] was “Priming is ATP-sensitive, as the duration of the priming phase (tprime) decreased with increasing ATP concentration”.
“Cy3B-H2A.Z/H2B dimer (from UniProt P02293 5-131) (complex)”: in [4], the mean lifetime of the bound state worked out at 34 s, the percent of nucleosomes bound within 10 s was 50% and the percent of nucleosomes that bound at least one dimer in 5 min stood at 89%.
Turning to “Cy3B-labeled H2A/H2B dimer (from UniProt P02293 5-131) (complex)”, the half-life of release (t release) in series [5] amounted to 1.6 min; in series [6], 3.65 min.
For the compound “SWR1C (from UniProt Q05471 1-1514; P38326 1-303; Q12509 1-438; Q03433 1-280; P31376 1-625) (complex)”, the Kd is 12 nM in series [7]; 25 nM in series [8]; 31 nM in [9]; 21 nM in [10]; 14 nM in series [11].
